We go through 49 molecules from patent US20160250307A1 (IMMATICS BIOTECHNOLOGIES, published 2016).

For one assay, the target named is HLA-A*02 (human). Put plainly: UV-ligand exchange, anti-b2m ELISA; grade: exchange yield >=50%. Background: ELISA stands for enzyme-linked immunosorbent assay.
ILNVDGLIGV: the peptide exchange yield fell in the range of 50 to 75%. The molecule ALDPKANFST yielded a peptide exchange yield of 50 to 75%. Take GLIHLEGDTV: the peptide exchange yield lay within 50 to 75%. Molecule ALADVVHEA returned a peptide exchange yield of 50 to 75%. Take ILADTFIGV: the peptide exchange yield is 50 to 75%.

KLKETIQKL displayed a peptide exchange yield of 50 to 75%. As to GLLDPNVKSIFV, the peptide exchange yield lay within 50 to 75%. Molecule KLFSGDELLEV returned a peptide exchange yield of 50 to 75%. In the case of GLYGRTIEL, the peptide exchange yield is 50 to 75%. As to KLHEEIDRV, the peptide exchange yield was 50 to 75%.

As to SLAEGTATV, the peptide exchange yield is 50 to 75%.

In the case of GLFNAELLEA, the peptide exchange yield is 50 to 75%. The same measure, in the same setting: the result for LLLPLLPPLSP reads 50 to 75%; that for ALLAEGITWV, 50 to 75%. Molecule FLLEQPEIQV had a peptide exchange yield of 50 to 75%.

In turn, GVLPGLVGV showed a peptide exchange yield of 50 to 75%. Molecule LLHGHIVEL registered a peptide exchange yield of 50 to 75%.

ALLGGNVRMML gave a peptide exchange yield of 50 to 75%. With KILEETLYV, the peptide exchange yield lay within 50 to 75%. With AMAEMKVVL, the peptide exchange yield lay in the range of 50 to 75%. On the same count and under the same terms, the value for SLQESILAQV was 50 to 75%. HLTEAIQYV yielded a peptide exchange yield of 50 to 75%. Turning to KIDEKNFVV, the peptide exchange yield fell in the range of 50 to 75%.

A further assay deals with HLA-A*02 (human). Put plainly: UV-ligand exchange, anti-b2m ELISA; grade: exchange yield >=75%.
For the molecule GLFAPLVFL, the peptide exchange yield is not below 75%. In turn, AVIGGLIYV gave a peptide exchange yield not below 75%. The molecule LLFPHPVNQV returned a peptide exchange yield not below 75%.

The molecule SLLEEPNVIRV showed a peptide exchange yield not below 75%. In the case of ALSQVTLLL, the peptide exchange yield is not below 75%. Molecule ALTSISAGV displayed a peptide exchange yield not below 75%.

The molecule TLGQFYQEV registered a peptide exchange yield not below 75%.

Molecule ALLETNPYLL displayed a peptide exchange yield not below 75%. In turn, ALDAGAVYTL gave a peptide exchange yield not below 75%. ALPTVLVGV displayed a peptide exchange yield not below 75%. Regarding LLIDVVTYL, the peptide exchange yield was not below 75%. With SLLPQLIEV, the peptide exchange yield was not below 75%. QLHDFVMSL returned a peptide exchange yield not below 75%.

Turning to VLIGSNHSL, the peptide exchange yield was not below 75%. On to RVIEHVEQV, for which the peptide exchange yield was not below 75%. GLLSGLDIMEV showed a peptide exchange yield not below 75%.

VLGEVKVGV showed a peptide exchange yield not below 75%.

Molecule LLYEGKLTL showed a peptide exchange yield not below 75%.

AMGEKSFSV had a peptide exchange yield not below 75%. In turn, VLMDKLVEL yielded a peptide exchange yield not below 75%. GLSNLGIKSI: the peptide exchange yield is not below 75%. The molecule GLAFSLNGV came in with a peptide exchange yield not below 75%. The molecule TVGGSEILFEV returned a peptide exchange yield not below 75%. Molecule ALYGRLEVV returned a peptide exchange yield not below 75%. SLSAFLPSL showed a peptide exchange yield not below 75%. SVYDGKLLI registered a peptide exchange yield not below 75%.
